Results reported in patent publication US20250011363A1, “OPTIMIZED SHORTENED PEPTIDE THAT BINDS TO ACETYLCHOLINE RECEPTOR, AND USE THEREOF” (SKINMED CO., LTD., priority 2021, published 2025).

What follows are substances tested against acetylcholine receptor (Homo sapiens, UniProt P02708) (assay: SPR binding affinity (RU) of optimized 5mer/6mer/7mer peptides, Examples 6-7). Details: 6mer-1 Top sequence; SPR; peptides tested at 10 μM.
Procedure: Based on the frequencies of occurrence of the top 7 amino acids from Table 7 in Example 5, 600 peptides comprising these amino acids (top combinations) and those comprising the 13 less frequently occurring amino acids (bottom combinations) were synthesized for each series of 5mer, 6mer-1, and 6mer-2. The binding affinity of each sequence for the acetylcholine receptor was measured using Surface Plasmon Resonance (SPR) analysis method. The peptides were tested at a concentration of 10 μM. Additionally, the average binding affinities of the top and bottom combinations in each series are depicted in FIGS. 5-7.
Representative peptides identified in Example 6, two in each library, including 5mers (73, 311) and 6mers-1 (43, 210) and 6mers-2 (136, 233), were compared with the pre-optimized 6mer, 5mer-ND, and Synake.

Chain of acetylcholine receptor (P02708 21-457): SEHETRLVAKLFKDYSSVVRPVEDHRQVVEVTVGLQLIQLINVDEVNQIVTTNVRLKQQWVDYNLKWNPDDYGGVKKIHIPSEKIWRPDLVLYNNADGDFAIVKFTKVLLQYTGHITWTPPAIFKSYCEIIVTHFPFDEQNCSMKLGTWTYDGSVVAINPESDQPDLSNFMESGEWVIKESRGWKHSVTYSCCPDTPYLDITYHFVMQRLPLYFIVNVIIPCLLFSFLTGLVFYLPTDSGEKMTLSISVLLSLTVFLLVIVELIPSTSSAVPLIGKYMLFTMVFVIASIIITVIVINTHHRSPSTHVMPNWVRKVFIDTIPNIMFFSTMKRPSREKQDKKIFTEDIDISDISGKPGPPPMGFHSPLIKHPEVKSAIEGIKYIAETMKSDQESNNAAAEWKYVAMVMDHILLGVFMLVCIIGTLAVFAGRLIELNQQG

First: 6mer-1-343 (KKLYTK)
Second: 6mer-1-310 (RKRQLK)
The Binding affinity of the first is higher: 135 Ru for the first, 127 Ru for the second.

Going from 6mer-1-361 (RKSVQR) to 6mer-1-325 (RRQIQR), the Binding affinity rises from 127 Ru to 142 Ru.

With 6mer-1-298 (KKLYCK) the Binding affinity was 147 Ru.

Same assay, conditions: 6mer-2 Top sequence; SPR; peptides tested at 10 μM

Compared with 6mer-2-112 (RLQQKR), 6mer-2-135 (RWFYKK) is lower in Binding affinity: 142 Ru for the first, 124 Ru for the second.

Same assay, conditions: SPR, Resonance Units; 5mer Bottom sequence (bottom combinations); peptides tested at 10 μM

Compared with 5mer-631 (RPANR), 5mer-951 (RYMGR) is higher in Binding affinity: 17 Ru for the first, 18 Ru for the second.

First: 5mer-954 (KTEVK)
Second: 5mer-774 (RTCDR)
The Binding affinity of the first is lower: 23 Ru for the first, 25 Ru for the second.

Going from 5mer-1089 (KTHHR) to 5mer-992 (RNDKK), the Binding affinity falls from 29 Ru to 15 Ru.

Compared with 5mer-1027 (KNTNR), 5mer-789 (KFWIR) is lower in Binding affinity: 28 Ru for the first, 12 Ru for the second.

First: 5mer-809 (RKSGK)
Second: 5mer-1099 (RATAR)
The Binding affinity of the first is higher: 15 Ru for the first, 14 Ru for the second.

Compared with 5mer-902 (REDPK), 5mer-927 (RDEDR) is lower in Binding affinity: 23 Ru for the first, 19 Ru for the second.

Going from 5mer-644 (RMKWK) to 5mer-775 (RHTVK), the Binding affinity falls from 24 Ru to 23 Ru.

Compared with 5mer-682 (KPNVK), 5mer-990 (KEEPK) is lower in Binding affinity: 31 Ru for the first, 12 Ru for the second.

Going from 5mer-1092 (KPMVK) to 5mer-1047 (KAHMR), the Binding affinity rises from 12 Ru to 23 Ru.

For 5mer-700 (RAWER), the Binding affinity was 17 Ru.

Same assay, conditions: SPR, Resonance Units; peptides tested at 10 μM; 6mer-1 Bottom sequence

Compared with 6mer-1-1036 (KKITFR), 6mer-1-1066 (RKEDVK) is higher in Binding affinity: 21 Ru for the first, 23 Ru for the second.

Same assay, conditions: SPR, Resonance Units; peptides tested at 10 μM; 6mer-1 Bottom sequence (Table 11)

Going from 6mer-1-692 (RKNTHK) to 6mer-1-660 (KKYHVK), the Binding affinity rises from 22 Ru to 31 Ru.

Going from 6mer-1-730 (KRATFR) to 6mer-1-745 (KKTMEK), the Binding affinity falls from 13 Ru to 11 Ru.

Going from 6mer-1-797 (RRAWNK) to 6mer-1-743 (KKTMVR), the Binding affinity falls from 22 Ru to 14 Ru.

Same assay, conditions: SPR, Resonance Units; peptides tested at 10 μM; 6mer-2 Bottom sequence

Compared with 6mer-2-985 (REMNKR), 6mer-2-619 (RPPDRR) is lower in Binding affinity: 34 Ru for the first, 26 Ru for the second.

Compared with 6mer-2-844 (RDPKKK), 6mer-2-920 (RMTIKK) is higher in Binding affinity: 22 Ru for the first, 26 Ru for the second.

Compared with 6mer-2-843 (KAPDRK), 6mer-2-673 (RFCGRK) is lower in Binding affinity: 33 Ru for the first, 23 Ru for the second.

Going from 6mer-2-881 (KDTEKK) to 6mer-2-964 (KCEDRK), the Binding affinity rises from 33 Ru to 41 Ru.

First: 6mer-2-927 (RFNPRK)
Second: 6mer-2-677 (RENWKK)
The Binding affinity of the first is higher: 39 Ru for the first, 28 Ru for the second.

Compared with 6mer-2-847 (RYCHKR), 6mer-2-618 (KHHKKR) is lower in Binding affinity: 22 Ru for the first, 12 Ru for the second.

For 6mer-2-750 (RKCVKR), the Binding affinity was 29 Ru.

Same assay, conditions: SPR, Resonance Units; peptides tested at 10 μM; 6mer-2 Top sequence

6mer-2-488 (KVYRRK) and 6mer-2-591 (KGILRR) are the same in Binding affinity: 146 Ru for the first, 146 Ru for the second.

First: 6mer-2-552 (RGLLRR)
Second: 6mer-2-478 (KWYTRK)
The Binding affinity of the first is higher: 148 Ru for the first, 145 Ru for the second.

6mer-2-535 (KLFCRR) gave a Binding affinity of 133 Ru.

Same assay, conditions: SPR, Resonance Units; peptides tested at 10 μM; 6mer-2 Top sequence (Table 12)

Going from 6mer-2-235 (KLVRKK) to 6mer-2-205 (KSFQRK), the Binding affinity rises from 136 Ru to 147 Ru.

Compared with 6mer-2-245 (RSLSKR), 6mer-2-228 (KGQCKK) is higher in Binding affinity: 135 Ru for the first, 141 Ru for the second.

First: 6mer-2-304 (KWFYRK)
Second: 6mer-2-213 (KSILRR)
The Binding affinity of the first is higher: 144 Ru for the first, 142 Ru for the second.

Going from 6mer-2-294 (KLYYRR) to 6mer-2-299 (RWYYRK), the Binding affinity rises from 135 Ru to 141 Ru.

First: 6mer-2-214 (RWRSRK)
Second: 6mer-2-265 (RRQTRK)
The Binding affinity of the first is higher: 139 Ru for the first, 135 Ru for the second.

Compared with 6mer-2-301 (RQVRKR), 6mer-2-366 (KQYYRR) is higher in Binding affinity: 122 Ru for the first, 142 Ru for the second.

Same assay, conditions: SPR, peptides at 10 μM; 6mer-2 Bottom sequence

First: 6mer-2-1109 (KEDMRK)
Second: 6mer-2-1017 (RAPVRR)
The Binding affinity of the first is lower: 26 Ru for the first, 40 Ru for the second.

Compared with 6mer-2-1178 (KTTVRK), 6mer-2-1162 (KMSERR) is higher in Binding affinity: 30 Ru for the first, 34 Ru for the second.

First: 6mer-2-1101 (RTKMRR)
Second: 6mer-2-1089 (RKTDRR)
The Binding affinity of the first is lower: 38 Ru for the first, 43 Ru for the second.

In the case of 6mer-2-1106 (KDKVKR), the Binding affinity is reported as 28 Ru.

Same assay, conditions: SPR, peptides tested at 10 μM; 5mer Top sequence

Going from 5mer-100 (KVIRK) to 5mer-51 (RSLQR), the Binding affinity falls from 80 Ru to 70 Ru.

Compared with 5mer-112 (KRYYR), 5mer-328 (RWVLK) is higher in Binding affinity: 58 Ru for the first, 61 Ru for the second.

Compared with 5mer-53 (RLVTR), 5mer-468 (RWQCK) is higher in Binding affinity: 50 Ru for the first, 54 Ru for the second.

Compared with 5mer-7 (RQLTK), 5mer-455 (RWLYK) is higher in Binding affinity: 54 Ru for the first, 61 Ru for the second.

First: 5mer-343 (KSFSR)
Second: 5mer-165 (KWRSK)
The Binding affinity of the first is higher: 60 Ru for the first, 56 Ru for the second.

First: 5mer-97 (KRQLR)
Second: 5mer-390 (KRFCR)
The Binding affinity of the first is lower: 52 Ru for the first, 64 Ru for the second.

Compared with 5mer-371 (RGISK), 5mer-425 (RGFYR) is lower in Binding affinity: 86 Ru for the first, 80 Ru for the second.

Going from 5mer-197 (RSRQK) to 5mer-336 (KSVSR), the Binding affinity rises from 68 Ru to 83 Ru.

Same assay, conditions: SPR, peptides tested at 10 μM; 5mer Top sequence (top combinations)

First: 5mer-575 (KGFYR)
Second: 5mer-598 (RVRSK)
The Binding affinity of the first is lower: 69 Ru for the first, 84 Ru for the second.

Same assay, conditions: SPR, peptides tested at 10 μM; 6mer-1 Bottom sequence (Table 11)

Compared with 6mer-1-953 (KRTNGK), 6mer-1-946 (RRCEPR) is higher in Binding affinity: 26 Ru for the first, 31 Ru for the second.

First: 6mer-1-874 (KRANHK)
Second: 6mer-1-952 (KRHDKK)
The Binding affinity of the first is lower: 18 Ru for the first, 28 Ru for the second.

Going from 6mer-1-841 (KKDAPR) to 6mer-1-921 (RKFWHR), the Binding affinity rises from 30 Ru to 36 Ru.

First: 6mer-1-883 (KKIDDK)
Second: 6mer-1-820 (KRNDGK)
The Binding affinity of the first is higher: 21 Ru for the first, 12 Ru for the second.

Going from 6mer-1-965 (KRIWDK) to 6mer-1-831 (KKNPWK), the Binding affinity falls from 36 Ru to 15 Ru.

Same assay, conditions: SPR, peptides tested at 10 μM; 6mer-1 Top sequence

Compared with 6mer-1-494 (KKLFSR), 6mer-1-564 (KRSITK) is higher in Binding affinity: 128 Ru for the first, 139 Ru for the second.

6mer-1-516 (KKRFSR) and 6mer-1-563 (RRSFTR) are the same in Binding affinity: 139 Ru for the first, 139 Ru for the second.

With 6mer-1-547 (RKVQQR) the Binding affinity was 148 Ru.

Same assay, conditions: SPR, peptides tested at 10 μM; 6mer-1 Top sequence (top combinations)

Compared with 6mer-1-69 (RKVRRR), 6mer-1-39 (RKVYQK) is lower in Binding affinity: 142 Ru for the first, 139 Ru for the second.

Going from 6mer-1-55 (KRSIYR) to 6mer-1-202 (RRQLTK), the Binding affinity rises from 133 Ru to 154 Ru.

Same assay, conditions: SPR; XRRGVRR-7mer and RRGVRRX-7mer

Going from 3653 (YRRGVRR) [compound 3653] to 3644 (CRRGVRR) [compound 3644], the “Binding affinity, values relative to the RRGVRR sequence” value falls from 145 to 128.

Same assay, conditions: SPR; XRRQRR-6mer and RRQRRX-6mer

Going from 3615 (QRRQRR) [compound 3615] to 3606 (LRRQRR) [compound 3606], the “Binding affinity, relative value to the RRQRR sequence” value rises from 105 to 144.

Same assay, conditions: SPR; peptides tested at 10 μM; 5mer Bottom sequence

5mer-1141 (REEVR) and 5mer-816 (RKPIK) are the same in Binding affinity: 26 Ru for the first, 26 Ru for the second.

First: 5mer-1196 (RICIR)
Second: 5mer-848 (RYMVK)
The Binding affinity of the first is higher: 24 Ru for the first, 12 Ru for the second.

First: 5mer-822 (RAKGK)
Second: 5mer-1130 (RFMVR)
The Binding affinity of the first is lower: 16 Ru for the first, 17 Ru for the second.

With 5mer-853 (RYHIK) the Binding affinity was 13 Ru.
